Experimental data from article PMC7752801.

Target: streptolysin O (SLO) isolated from group A Streptococcus (Streptococcus pyogenes (group A Streptococcus)) (UniProt P0C0I3)
Assay: other fluorescence titration; SLO at 2.0×10^−8 M mixed with HSA from 0 M to 4.0×10^−8 M; fluorescence between 300 nm and 400 nm, excitation 280; apparent Kd from Eq. 1

Chain of UniProt P0C0I3 (P0C0I3 34-571): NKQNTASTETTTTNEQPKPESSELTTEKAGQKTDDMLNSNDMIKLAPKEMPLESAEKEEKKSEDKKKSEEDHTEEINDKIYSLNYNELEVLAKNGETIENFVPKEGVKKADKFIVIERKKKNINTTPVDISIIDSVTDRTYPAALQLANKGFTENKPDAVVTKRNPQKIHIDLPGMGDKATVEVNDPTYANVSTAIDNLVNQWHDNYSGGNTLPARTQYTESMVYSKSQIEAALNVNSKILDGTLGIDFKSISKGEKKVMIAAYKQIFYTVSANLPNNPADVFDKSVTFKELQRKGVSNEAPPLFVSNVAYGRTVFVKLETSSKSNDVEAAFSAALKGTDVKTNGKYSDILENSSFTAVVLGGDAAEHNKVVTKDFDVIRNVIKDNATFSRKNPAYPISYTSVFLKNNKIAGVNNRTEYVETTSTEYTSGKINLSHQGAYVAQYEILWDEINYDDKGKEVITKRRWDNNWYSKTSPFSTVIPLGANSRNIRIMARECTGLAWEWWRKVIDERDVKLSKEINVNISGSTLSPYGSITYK

## L305A/F374A 6×His-tag-HSA (double mutant Leu305Ala/Phe374Ala) (natural protein)
  Kd: 7.3 nM
